Results reported in patent US11066655B2, “RNA polymerase, methods of purification and methods of use” (President and Fellows of Harvard College, priority 2013, dated 2021).

How the values were obtained:
Assay type in all cases: biochemical
pUC19-S5P or pUC19-T7P = test: Processivity gel assay, rolling-circle synthesis on single-promoter plasmids
Procedure: FIGS. 9A-9H depict the processivity of Syn5 and T7 RNA polymerases. A) Agarose gel showing RNA synthesis by previously purified Syn5 RNA polymerase, newly purified Syn5 RNA polymerase with the improved procedure, and T7 RNA polymerase on a plasmid template containing a single cognate promoter (as shown in the schematic). B) Product as shown in A) by S5N2 RNA polymerase was incubated with 1 U/[…]1 RNase I or DNase I to confirm its RNA nature. C) Effect of increasing KCl concentration on Syn5 RNA polymerase transcription. D) Products by Syn5 and T7 RNAP in a rolling-circle manner were analyzed at denaturing condition. E) Same assay as D) except that the template plasmids were linearized as shown in the schematic. F) & G) Decreasing the concentration of T7 (F) and Syn5 (G) RNA polymerase reduced the abortive products due to clash of RNA polymerases at promoter region. H) RNA polymerase promoter distribution on coliphage T7 and cyanophage Syn5 genomes.
DNA templates for transcription assays were either plasmids or dsDNA fragments made of synthesized oligonucleotides. To test the processivity of Syn5 and T7 RNAP, a single Syn5 or T7 promoter plus 3 guanosine downstream of the promoter (Syn5 5′-ATTGGGCACCCGTAAGGG-3′ (SEQ ID NO:1) or T7 5′-[…]-3′) (SEQ ID NO:2) was inserted between the BamHI and XbaI sites of plasmid pUC19 to form pUC19-S5P or pUC19-T7P. The templates for run-off tRNA^Arg synthesis were formed by annealing of two complementary synthesized DNA oligos of which sequences are as following:
For the results shown in FIG. 9, reaction mixtures (10 μl) contained 40 mM Tris-HCl pH 8.0, 6 mM MgCl2, 2 mM spermidine, 10 mM DTT, 600 µM[…]P, GTP, CTP, and UTP, 1.5 U/µl RNaseOUT™ recombinant ribonuclease inhibitor, 0.04 U/µl yeast inorganic pyrophosphatase, 10 nM pUC19-Syn5P3G or pUC19-T7P3G, 10 nM Syn5 or T7 RNAP and various amount of KCl as noted in the figure or described in the figure legend. After 1 hr incubations at RT, one unit of DNase I was added to each reaction mixture and incubated for an additional 15 min at 37° C. to remove the DNA templates. For FIGS. 8A-8C, 2 µl reaction mixture was directly mixed with native loading dye and loaded onto 1.6% TAE agarose gel. For FIGS. 8D-8F, RNA products were purified with RNA Clean & Concentrator™-5 kit into a final solution of 10 µl and 5 µl each was mixed with 5 µl denaturing RNA loading dye (New England Biolabs). Samples were then heated at 65° C. for 5 min and loaded onto 1.6% TAE agarose gel. RNA products were visualized by ethidium bromide staining.

[1] = tested on: dsDNA template S5PhmttRNAProUGG; test: Synthesis of human mt tRNAPro, short RNA, optimized conditions
[2] = tested on: DNA templates with Syn5 promoter; test: Gel assay of transcription products with MgCl2, FeCl2 or MnCl2 as cofactor
Procedure: FIG. 6 depicts a comparison of Syn5 RNAP transcription products in the presence of MgCl2, FeCl2 or MnCl2 on denaturing gels. Reactions contained 200 µM ATP, GTP, UTP and 10 µM[…]-^32P]CTP, 50 nM Syn5 RNAP, DNA templates (1 µM template as shown in FIG. 3A for 71 nt runoff transcript, 4 nM template 3 as shown in FIG. 3C for 225 nt product, or 1 µM template 1 as shown in FIG. 3B for 37 nt runoff transcript).
For the gel assay results shown in FIGS. 1, 2, 3, and 13, reaction mixtures (20 μl) contained 40 mM Tris-HCl (pH 7.9), 6 mM MgCl2, 2 mM spermidine, 10 mM DTT, 200 µM[…]P, GTP and UTP, 10 µM [[…]-^32P]CTP, 1.5 U/µl RNaseOUT™ recombinant ribonuclease inhibitor (Invitrogen), 100 nM Syn5 or T7 RNAP, and DNA templates as described in the figure legends (either 2 nM phage genomic DNA, 4 nM purified PCR products, or 1 µM synthetic dsDNA fragments). Reaction mixtures were incubated at 24° C. for 30 min. The reaction mixtures described in FIG. 6 contained 40 mM Tris-HCl (pH 8.0), 200 µM[…]P, GTP and UTP, 10 µM [[…]-^32P]CTP, 1.5 U/µl RNaseOUT™, 50 nM Syn5 RNAP, DNA templates, and various amounts of MgCl2, FeCl2, MnCl2 and KCl as described in the figure legends. After 30 min incubations at 24° C., one unit of RQ1 RNase-Free DNase (Promega) was added to each reaction mixture and incubated for an additional 20 min at 37° C. to remove the DNA templates. Reactions were then terminated by the addition of 8 µl of loading dye containing 95% formamide and 40 mM EDTA. Samples were then heated at 90° C. for 1 min and loaded onto either 10% or 25% TBE-Urea denaturing gels. After electrophoresis, gels were dried and analyzed using a Fuji BAS 1000 Bioimaging Analyzer.

B1: Syn5 RNAP: single subunit DNA-dependent RNA polymerase from marine cyanophage Syn5, amino acid sequence SEQ ID NO:23 (protein)
chain: MSFDLIARQLQRETEAAELARKRLQDARREANERSYASSNIESRKAIATFLDPIAQRIGERLFTLRRGTGAVDAAEVYKHLKNADHHHLALITMKTALDVLGKDPEPQIQQLTTAIGRNIQLELRLTYYAEENPELYKQASRFFHAGTGTRQKATVIKLKFNREGIEWDQWSRVTCHKVGQWLMLAMADVTGWIERATDRTSGGRKTKTRICYSREFLQHRDTILAAAEQLAFCQWPMLCPPIEWSNDHNGGYLSEQIRRVNPLIRKTGPLGTRKQGDIPLAMLNNLQGQAYKVNPEVLDIANHCYESNVTVGKFIRHAPLPVPPSPGEDCTEDQLTAYKRARREAEDFNAQISQKNWRTTEVMYVARKYADEASFWMPASFDYRGRVYFLNTALNPQGTDFDKALLYFAEEGPVNEWWLSFHVATTYGLDKETMVNRVQWARDNHELIDRIASDPVRHTEWHDADEPWCFLAACLEYKACVIDGTKQTSGLPIGIDATCSGLQHLAAMTRCGRTAALVNVTPTDKPADAYKTVAQASLKHLPKEQHEWITRKVTKRPVMCTPYGVTMSSARGYIRDQLVKDGHKEDLRSPGVLNGIVKAIFNEAIPEVIPGPVQVMAWLKRSAGQIIDRGDSTITWTTPSGFEVVQDLKKSKTYEVKTRIMGGARIKLQVGDGFTDEPDRDHHKSALAPNVVHSNDASLLHLTFAFWDKPFTVIHDCVLGRSCDMDQMGSDIRLHFAEMYKADVMQDWADQVGVELPVDLIKNTLDIDSVNQSLYFFS
modifications: Amino acid sequence of a cyanophage Syn5 RNAP
pUC19-S5P or pUC19-T7P
  apparent processivity: over 30 kilo nucleotides
  processivity: greater than 30,000 nt
pUC19-S5P or pUC19-T7P; low enzyme concentration
  length approached by some products: ~30 kilo nt
  length of most products: over 9 kilo nt
[1]; 100 µl transcription reaction
  estimated yield of RNA: 4 nmole/100 µl
[1]; at 42° C.
  enzyme activity: very low
[1]; final NTP 4 mM instead of 8 mM
  reduction of yield: approximately 20%
[2]; 2 mM FeCl2
  transcription with ferrous as cofactor: produce a 71 nt runoff transcript identical to that produced in the presence of MgCl2
[2]; FeCl2
  longer transcripts (e.g. 225 nt) in the presence of iron: did not produce longer transcripts
[2]; manganese 0.25 to 1 mM versus magnesium
  maximum yield of short runoff products: higher in the presence of manganese
[2]; manganese versus magnesium
  N+1 runoff product: significantly higher with manganese than that with magnesium
[2]; versus magnesium
  efficiency of iron as a cofactor: several times less than that of magnesium
